Experimental data as given in patent US20170106084A1 (Hoffmann-La Roche, published 2017).
Each block holds one binder with its values, some of them ahead of it. Square brackets hold non-standard residues; d marks the D form. Ends that are not written are not given here. pS = N[C@@H](COP(=O)(O)O)C(=O)O

Key:
[1] = molecular target: T1, tau peptide residues 416 to 430 of SEQ ID NO: 01 (human, also: biotinylated, site not given here); assay: ELISA, coated antigen
T1 construct: also called non-phosphorylated tau peptide
T1 peptide: SIDMVDSPQLATLAD

[2] = molecular target: full length human tau S422A mutant (human, UniProt P10636 2-758); assay: ELISA, coated antigen
[3] = molecular target: T2, human tau(pS422) fragment SEQ ID NO: 03 (human, also: biotinylated); assay: ELISA, coated antigen
T2 construct: also called phosphorylated tau peptide
T2 peptide: SIDMVD[pS]PQLATLAD

[4] = molecular target: T3, transferrin receptor on hCMEC/D3 cells (UniProt P02786 1-760, limits assumed); assay: transwell assay on hCMEC/D3 cells, IgG ELISA
T3 construct: whole, on cells; also called TfR
Experimental: We used brain endothelial cells (hCMEC/D3) to investigate cell binding and transcytosis of the shuttle modules as reported herein. […] Cell monolayers were washed at room temperature in serum-free medium apically (400 μl) and basolaterally (1600 μl) three times for 3-5 minutes each. All wash volumes were collected to monitor efficiency of removal of the unbound ligand or antibody. Pre-warmed medium was added to the apical chamber and the filters transferred to a fresh 12 well plate (blocked overnight with PBS containing 1% BSA) containing 1600 μl pre-warmed medium. At this point, cells were lysed in 500 μl RIPA buffer (Sigma, Munich, Germany, #R0278) in order to determine specific uptakes. The remaining filters were incubated at 37° C. and samples collected at various time points to determine apical and/or basolateral release. The content of antibody in the samples was quantified using a highly sensitive IgG ELISA.

[5] = molecular target: T4, MCAK_Human (88-102)[95-pSer] (human, UniProt Q99661 88-102, also: biotinylated, site not given here); assay: ELISA, single point
T4 construct: also called MCAK phosphopeptide
T4 peptide (looked up): IQKQKRR[pS]VNSKIPA

[6] = molecular target: T1, tau peptide residues 416 to 430 of SEQ …; assay: ELISA, biotinylated peptide on streptavidin plate
Experimental: (§1) Rabbit monoclonal antibodies were recombinantly expressed in HEK 293 cells. […] Coating with KLH or control peptides was performed at 1 μg/ml. […] After intensive washing, the binding of the rabbit antibodies was detected using a sheep anti-rabbit IgG digoxigenin conjugated detection antibody (Chemicon AQ301D). […] The antibody binding was characterized by its EC50 values. […] Cross-reactivity with KLH or MCAK phosphopeptide was estimated by single-point measurement at high concentrations, i.e. at 1:5 dilution of the cell culture supernatants.

[7] = molecular target: T2, human tau(pS422) fragment SEQ ID NO: 03; assay: ELISA, biotinylated peptide on streptavidin plate
Experimental: as §1

[8] = molecular target: T2, human tau(pS422) fragment SEQ ID NO: 03; assay: ELISA, ratio of EC50 values
Experimental: as §1

[9] = molecular target: T3, transferrin receptor on hCMEC/D3 cells; assay: transwell assay on hCMEC/D3 cells, huFc ELISA
[10] = molecular target: T3, transferrin receptor on hCMEC/D3 cells; assay: transwell assay on hCMEC/D3 cells, huFc ELISA; remark: listed apart in the source

T3 sequence (P02786 whole entry): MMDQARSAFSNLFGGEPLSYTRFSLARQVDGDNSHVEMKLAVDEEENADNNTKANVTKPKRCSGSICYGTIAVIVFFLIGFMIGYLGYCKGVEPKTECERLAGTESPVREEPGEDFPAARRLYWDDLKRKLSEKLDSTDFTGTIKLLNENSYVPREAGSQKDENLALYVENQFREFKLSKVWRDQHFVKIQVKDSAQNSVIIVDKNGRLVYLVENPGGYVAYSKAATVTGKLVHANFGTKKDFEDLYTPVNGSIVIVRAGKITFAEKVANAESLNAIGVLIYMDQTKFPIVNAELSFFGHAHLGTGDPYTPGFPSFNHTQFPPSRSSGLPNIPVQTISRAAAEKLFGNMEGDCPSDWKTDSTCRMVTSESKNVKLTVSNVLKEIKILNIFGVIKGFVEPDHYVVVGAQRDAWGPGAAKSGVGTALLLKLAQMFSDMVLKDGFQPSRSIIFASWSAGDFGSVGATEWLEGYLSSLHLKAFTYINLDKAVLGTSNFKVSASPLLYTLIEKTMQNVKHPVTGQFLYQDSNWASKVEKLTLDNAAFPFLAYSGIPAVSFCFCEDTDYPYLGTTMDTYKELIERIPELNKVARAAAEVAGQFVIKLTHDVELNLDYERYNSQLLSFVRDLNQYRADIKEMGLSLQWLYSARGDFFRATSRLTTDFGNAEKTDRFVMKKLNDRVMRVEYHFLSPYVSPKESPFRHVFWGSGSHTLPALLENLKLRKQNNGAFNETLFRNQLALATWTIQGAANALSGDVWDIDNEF
Chain of full length human tau S422A mutant (P10636 other isoform, or with tags, fused parts or gaps S422A S422A limits assumed): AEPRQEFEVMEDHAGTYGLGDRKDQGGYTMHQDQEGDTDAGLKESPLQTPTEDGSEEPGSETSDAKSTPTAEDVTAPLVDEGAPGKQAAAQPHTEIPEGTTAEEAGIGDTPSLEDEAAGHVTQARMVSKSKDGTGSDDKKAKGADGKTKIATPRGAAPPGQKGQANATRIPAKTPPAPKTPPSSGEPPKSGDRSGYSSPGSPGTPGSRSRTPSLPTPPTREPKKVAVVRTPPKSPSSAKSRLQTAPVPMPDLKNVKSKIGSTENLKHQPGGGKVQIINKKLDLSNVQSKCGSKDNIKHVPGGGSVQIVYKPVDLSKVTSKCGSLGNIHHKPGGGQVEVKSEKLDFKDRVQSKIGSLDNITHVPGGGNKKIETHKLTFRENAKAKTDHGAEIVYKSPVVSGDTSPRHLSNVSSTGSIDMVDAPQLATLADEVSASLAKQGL

- EC50 [1]: 0.048 µg/mL
- EC50 [2]: 0.0174 µg/mL
B2: VH32/VL22 (antibody, V domains shown)
VH: EVQVLESGGGLVQPGGSLRLSCAVSGFSLSSNAINWVRQAPGKGLEWVGYIAVSGNTYYASWAKGRFTISRDNSKNTVYLQMNSLRAEDTAVYYCGKSNIWGQGTLVTVSS
VL: AQVMTQSPSSLSASVGDRVTITCRSSQSVRTNRLAWFQQKPGQPPKRLIYSASTLDYGVPSRFSGSGSGTEFTLTISSLQPEDFATYYCLGYFDSSADIVAFGGGTKVEIK
notes: full size IgG; kappa (59) or lambda (60) light constant not specified

- binding result [4]: binds
B4: TfR2-Bio (bispecific antibody, human IgG1, kappa)
heavy: not shown
light: QIVLTQSPAIMSASPGEKVTVTCSASSSIRYMHWYQQKPGTSPKRWIYDTSELASGVPARFSGSGSGTSYSLTINSMEAEDAATYYCHQRSSYPFTFGGGTKLEIKRTVAAPSVFIFPPSDEQLKSGTASVVCLLNNFYPREAKVQWKVDNALQSGNSQESVTEQDSKDSTYSLSSTLTLSKADYEKHKVYACEVTHQGLSSPVTKSFNRGEC
notes: bivalent anti-TfR2 IgG with an anti-biotin scFv at each CH3 C-terminus; also called anti-TfR2-Bio

- binding result [9]: binds
B7: anti-TfR1 antibody (TfR1) (antibody, V domains shown)
VH: EVQLQQSGPELVKPGASMKISCKASGYSFTGYTMNWVKQSHGENLEWIGRINPHNGGTDYNQKFKDKAPLTVDKSSNTAYMELLSLTSEDSAVYYCARGYYYYSLDYWGQGTSVTVSS
VL: QIVLTQSPAIMSASPGEKVTMTCSASSSIRYIHWYQQRPGTSPKRWIYDTSNLASGVPARFSGSGSGTSYSLTISSMEAEDAATYYCHQRNSYPWTFGGGTRLEIKR
notes: also called parent antibody

- binding result [10]: binds
B8: anti-TfR2 antibody (TfR2) (antibody, V domains shown)
VH: EVQLQQSGPELVKPGASVKMSCKASGYTFTSYVMHWVKQKPGQGLEWIGYVNPYNDDTKYNEKFRGKATLTSDKSSSTAYMELSSLTSEDSAVYYCARSYYYYSMDNWGQGTSVTVSS
VL: QIVLTQSPAIMSASPGEKVTVTCSASSSIRYMHWYQQKPGTSPKRWIYDTSELASGVPARFSGSGSGTSYSLTINSMEAEDAATYYCHQRSSYPFTFGGGTKLEIKR
notes: also called parent antibody

The remaining lines, values behind:

B1: VH32/VL21 (antibody, V domains shown)
VH: EVQVLESGGGLVQPGGSLRLSCAVSGFSLSSNAINWVRQAPGKGLEWVGYIAVSGNTYYASWAKGRFTISRDNSKNTVYLQMNSLRAEDTAVYYCGKSNIWGQGTLVTVSS
VL: AQVMTQSPSSLSASVGDRVTITCRSSQSVRTNKLAWFQQKPGQPPKRLIYSASTLDFGVPSRFSGSGSGTEFTLTISSLQPEDFATYYCLGYFDSSADIVAFGGGTKVEIK
notes: as for B2
- EC50 [1]: 0.634 µg/mL
- EC50 [2]: 0.0215 µg/mL
- EC50 [3]: 0.0044 µg/mL

B3: TfR1-Bio (bispecific antibody, human IgG1, kappa)
heavy: not shown
light: QIVLTQSPAIMSASPGEKVTMTCSASSSIRYIHWYQQRPGTSPKRWIYDTSNLASGVPARFSGSGSGTSYSLTISSMEAEDAATYYCHQRNSYPWTFGGGTRLEIKRTVAAPSVFIFPPSDEQLKSGTASVVCLLNNFYPREAKVQWKVDNALQSGNSQESVTEQDSKDSTYSLSSTLTLSKADYEKHKVYACEVTHQGLSSPVTKSFNRGEC
notes: bivalent anti-TfR1 IgG with an anti-biotin scFv at each CH3 C-terminus; also called anti-TfR1 antibody-Bio
- binding result [4]: binds

B5: VH00/VL00 (antibody, V domains shown)
VH: QSVEESGGRLVTPGTPLTLTCTVSGFSLSSNAINWVRQAPGKGLEWIGYIAVSGNTYYASWAKGRFTISKASTTVDLKMTSPTAEDTGTYFCGKSNIWGPGTLVTVSL
VL: AQVLTQTTSPVSAAVGSTVTISCQSSQSVRTNKLAWFQQKPGQPPKRLIYSASTLDFGVPSRFSASGSGTQFTLTISDVQCDDAATYYCLGYFDCSIADCVAFGGGTEVVVK
notes: rabbit variable domains; also called VH00 with VL00 (rabbit antibody); parent rabbit antibody
- EC50 [2]: 0.0479 µg/mL

B6: mAb 086 (antibody, V domains shown)
VH: QSVEESGGRLVTPGTPLTLTCTVSGFSLSSNAINWVRQAPGKGLEWIGYIAVSGNTYYASWAKGRFTISKASTTVDLKMTSPTAEDTGTYFCGKSNIWGPGTLVTVSL
VL: AQVLTQTTSPVSAAVGSTVTISCQSSQSVRTNKLAWFQQKPGQPPKRLIYSASTLDFGVPSRFSASGSGTQFTLTISDVQCDDAATYYCLGYFDCSIADCVAFGGGTEVVVK
notes: recombinant rabbit IgG; also called rabbit antibody mAb 086
- binding result [5]: no binding
- EC50 [6]: 0.266 µg/mL
- EC50 [7]: 0.0011 µg/mL
- selectivity against non-phosphorylated tau peptide [8]: ≥ 100 fold
